In US20240270846A1 (published 2024):
Changes are numbered by the printed parent chain. In names and notes the source's numbering stands. Values belong to the binder of their own block, whether it stands above or below them.

Target: T1, CD3 epsilon homodimer protein (UniProt P07766 23-126)
T1 construct: also called CD3 (CD3 epsilon)
Assay: SPR, CD3e homodimer on chip;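 further: surface plasmon resonance at 25 degrees C, antibodies flowed as analyte over CD3 epsilon homodimer amine-coupled to a CM4 chip, running buffer HBS-EP+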

T1 sequence (P07766 23-126): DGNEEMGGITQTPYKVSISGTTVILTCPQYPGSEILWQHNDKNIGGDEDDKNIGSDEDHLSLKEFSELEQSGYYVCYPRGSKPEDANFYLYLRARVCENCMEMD

B1: GLS3000 H34A one-arm antibody (H chain CE115HA000) (antibody, human IgG1, kappa, L234A L235A, N297A, name in Kabat numbering)
heavy: QVQLVESGGGVVQPGRSLRLSCAASGFTFSNAWMHWVRQAPGKGLEWVAQIKAKSNNYATYYAESVKGRFTISRDDSKNSLYLQMNSLKTEDTAVYYCRYVHYGAYYGVDAWGQGTTVTVSSASTKGPSVFPLAPSSKSTSGGTAALGCLVKDYFPEPVTVSWNSGALTSGVHTFPAVLQSSGLYSLSSVVTVPSSSLGTQTYICNVNHKPSNTKVDKKVEPKSCDKTHTCPPCPAPEAAGGPSVFLFPPKPKDTLMISRTPEVTCVVVDVSHEDPEVKFNWYVDGVEVHNAKTKPREEQYASTYRVVSVLTVLHQDWLNGKEYKCKVSNKALPAPIEKTISKAKGQPREPQVYTLPPSRCELTKNQVSLSCAVKGFYPSDIAVEWESNGQPENNYKTTPPVLDSDGSFFLVSKLTVDKSRWQQGNVFSCSVMHEALHNHYTQKSLSLSPDYKDDDDK
chain: EPKSSDKTHTCPPCPAPELLGGPSVFLFPPKPKDTLMISRTPEVTCVVVDVSHEDPEVKFNWYVDGVEVHNAKTKPREEQYNSTYRVVSVLTVLHQDWLNGKEYKCKVSNKALPAPIEKTISKAKGQPREPQVCTLPPSRDELTKNQVSLWCLVKGFYPSDIAVEWESNGQPENNYKTTPPVLDSDGSFFLYSKLTVDKSRWQQGNVFSCSVMHEALHNRYTQKSLSLSP
light: DIVMTQSPLSLPVTPGEPASISCRSSQSLVHSNRNTYLAWYQQKPGQAPRLLIYKVSNRFSGVPDRFSGSGSGTDFTLKISRVEAEDVGVYYCGQGTQVPYTFGQGTKLEIKRTVAAPSVFIFPPSDEQLKSGTASVVCLLNNFYPREAKVQWKVDNALQSGNSQESVTEQDSKDSTYSLSSTLTLSKADYEKHKVYACEVTHQGLSSPVTKSFNRGEC
notes: one-arm antibody
ratio of amounts bound (altered form / unaltered GLS3000 antibody): 1.06

B4: GLS3000 L27bM one-arm antibody (H chain CE115HA000) (antibody, human IgG1, kappa, L234A L235A, N297A, name in Kabat numbering)
heavy: B1 heavy
chain: B1 chain
light: B1 light with L29M, A39H
notes: one-arm antibody
ratio of amounts bound (altered form / unaltered GLS3000 antibody): 0.71

B5: GLS3000 N28D one-arm antibody (H chain CE115HA000) (antibody, human IgG1, kappa, L234A L235A, N297A, name in Kabat numbering)
heavy: B1 heavy
chain: B1 chain
light: B1 light with N33D, A39H
notes: one-arm antibody
ratio of amounts bound (altered form / unaltered GLS3000 antibody): 0.19

B6: GLS3000 L33A one-arm antibody (H chain CE115HA000) (antibody, human IgG1, kappa, L234A L235A, N297A, name in Kabat numbering)
heavy: B1 heavy
chain: B1 chain
light: B1 light with L38A, A39H
notes: one-arm antibody
ratio of amounts bound (altered form / unaltered GLS3000 antibody): 0.85

B9: GLS3000 K50A one-arm antibody (H chain CE115HA000) (antibody, human IgG1, kappa, L234A L235A, N297A, name in Kabat numbering)
heavy: B1 heavy
chain: B1 chain
light: B1 light with A39H, K55A
notes: one-arm antibody
ratio of amounts bound (altered form / unaltered GLS3000 antibody): 0.23

B11: GLS3000 L27bW one-arm antibody (H chain CE115HA000) (antibody, human IgG1, kappa, L234A L235A, N297A, name in Kabat numbering)
heavy: B1 heavy
chain: B1 chain
light: B1 light with L29W, A39H
notes: one-arm antibody
ratio of amounts bound (altered form / unaltered GLS3000 antibody): 0.26

B12: GLS3000 L27bF one-arm antibody (H chain CE115HA000) (antibody, human IgG1, kappa, L234A L235A, N297A, name in Kabat numbering)
heavy: B1 heavy
chain: B1 chain
light: B1 light with L29F, A39H
notes: one-arm antibody
ratio of amounts bound (altered form / unaltered GLS3000 antibody): 0.42

B13: GLS3000 L27bS one-arm antibody (H chain CE115HA000) (antibody, human IgG1, kappa, L234A L235A, N297A, name in Kabat numbering)
heavy: B1 heavy
chain: B1 chain
light: B1 light with L29S, A39H
notes: one-arm antibody
ratio of amounts bound (altered form / unaltered GLS3000 antibody): 0.71

B15: GLS3000 L27bI one-arm antibody (H chain CE115HA000) (antibody, human IgG1, kappa, L234A L235A, N297A, name in Kabat numbering)
heavy: B1 heavy
chain: B1 chain
light: B1 light with L29I, A39H
notes: one-arm antibody
ratio of amounts bound (altered form / unaltered GLS3000 antibody): 1.19

B16: GLS3000 L27bY one-arm antibody (H chain CE115HA000) (antibody, human IgG1, kappa, L234A L235A, N297A, name in Kabat numbering)
heavy: B1 heavy
chain: B1 chain
light: B1 light with L29Y, A39H
notes: one-arm antibody
ratio of amounts bound (altered form / unaltered GLS3000 antibody): 0.25

B17: GLS3000 H34D one-arm antibody (H chain CE115HA000) (antibody, human IgG1, kappa, L234A L235A, N297A, name in Kabat numbering)
heavy: B1 heavy
chain: B1 chain
light: B1 light with A39D
notes: one-arm antibody
ratio of amounts bound (altered form / unaltered GLS3000 antibody): 0.22

B19: GLS3000 L27bD one-arm antibody (H chain CE115HA000) (antibody, human IgG1, kappa, L234A L235A, N297A, name in Kabat numbering)
heavy: B1 heavy
chain: B1 chain
light: B1 light with L29D, A39H
notes: one-arm antibody
ratio of amounts bound (altered form / unaltered GLS3000 antibody): 0.17

B20: GLS3000 L27bP one-arm antibody (H chain CE115HA000) (antibody, human IgG1, kappa, L234A L235A, N297A, name in Kabat numbering)
heavy: B1 heavy
chain: B1 chain
light: B1 light with L29P, A39H
notes: one-arm antibody
ratio of amounts bound (altered form / unaltered GLS3000 antibody): 0.91

B24: GLS3000 K50D one-arm antibody (H chain CE115HA000) (antibody, human IgG1, kappa, L234A L235A, N297A, name in Kabat numbering)
heavy: B1 heavy
chain: B1 chain
light: B1 light with A39H, K55D
notes: one-arm antibody
ratio of amounts bound (altered form / unaltered GLS3000 antibody): 0.22

B25: GLS3000 L33D one-arm antibody (H chain CE115HA000) (antibody, human IgG1, kappa, L234A L235A, N297A, name in Kabat numbering)
heavy: B1 heavy
chain: B1 chain
light: B1 light with L38D, A39H
notes: one-arm antibody
ratio of amounts bound (altered form / unaltered GLS3000 antibody): 0.17

B26: GLS3000 N28A one-arm antibody (H chain CE115HA000) (antibody, human IgG1, kappa, L234A L235A, N297A, name in Kabat numbering)
heavy: B1 heavy
chain: B1 chain
light: B1 light with N33A, A39H
notes: one-arm antibody
ratio of amounts bound (altered form / unaltered GLS3000 antibody): 0.25

B27: GLS3000 L27bE one-arm antibody (H chain CE115HA000) (antibody, human IgG1, kappa, L234A L235A, N297A, name in Kabat numbering)
heavy: B1 heavy
chain: B1 chain
light: B1 light with L29E, A39H
notes: one-arm antibody
ratio of amounts bound (altered form / unaltered GLS3000 antibody): 0.17

B31: GLS3000 L27bV one-arm antibody (H chain CE115HA000) (antibody, human IgG1, kappa, L234A L235A, N297A, name in Kabat numbering)
heavy: B1 heavy
chain: B1 chain
light: B1 light with L29V, A39H
notes: one-arm antibody
ratio of amounts bound (altered form / unaltered GLS3000 antibody): 1.12

More lines, now with the values ahead:

ratio of amounts bound (altered form / unaltered GLS3000 antibody): 0.37
B2: GLS3000 N28Q one-arm antibody (H chain CE115HA000) (antibody, human IgG1, kappa, L234A L235A, N297A, name in Kabat numbering)
heavy: B1 heavy
chain: B1 chain
light: B1 light with N33Q, A39H
notes: one-arm antibody

ratio of amounts bound (altered form / unaltered GLS3000 antibody): 0.36
B3: GLS3000 N28P one-arm antibody (H chain CE115HA000) (antibody, human IgG1, kappa, L234A L235A, N297A, name in Kabat numbering)
heavy: B1 heavy
chain: B1 chain
light: B1 light with N33P, A39H
notes: one-arm antibody

ratio of amounts bound (altered form / unaltered GLS3000 antibody): 0.44
B7: GLS3000 N28I one-arm antibody (H chain CE115HA000) (antibody, human IgG1, kappa, L234A L235A, N297A, name in Kabat numbering)
heavy: B1 heavy
chain: B1 chain
light: B1 light with N33I, A39H
notes: one-arm antibody

ratio of amounts bound (altered form / unaltered GLS3000 antibody): 0.46
B8: GLS3000 N28G one-arm antibody (H chain CE115HA000) (antibody, human IgG1, kappa, L234A L235A, N297A, name in Kabat numbering)
heavy: B1 heavy
chain: B1 chain
light: B1 light with N33G, A39H
notes: one-arm antibody

ratio of amounts bound (altered form / unaltered GLS3000 antibody): 0.45
B10: GLS3000 N28T one-arm antibody (H chain CE115HA000) (antibody, human IgG1, kappa, L234A L235A, N297A, name in Kabat numbering)
heavy: B1 heavy
chain: B1 chain
light: B1 light with N33T, A39H
notes: one-arm antibody

ratio of amounts bound (altered form / unaltered GLS3000 antibody): 0.46
B14: GLS3000 N28F one-arm antibody (H chain CE115HA000) (antibody, human IgG1, kappa, L234A L235A, N297A, name in Kabat numbering)
heavy: B1 heavy
chain: B1 chain
light: B1 light with N33F, A39H
notes: one-arm antibody

ratio of amounts bound (altered form / unaltered GLS3000 antibody): 0.4
B18: GLS3000 N28E one-arm antibody (H chain CE115HA000) (antibody, human IgG1, kappa, L234A L235A, N297A, name in Kabat numbering)
heavy: B1 heavy
chain: B1 chain
light: B1 light with N33E, A39H
notes: one-arm antibody

ratio of amounts bound (altered form / unaltered GLS3000 antibody): 0.39
B21: GLS3000 N28L one-arm antibody (H chain CE115HA000) (antibody, human IgG1, kappa, L234A L235A, N297A, name in Kabat numbering)
heavy: B1 heavy
chain: B1 chain
light: B1 light with N33L, A39H
notes: one-arm antibody

ratio of amounts bound (altered form / unaltered GLS3000 antibody): 0.36
B22: GLS3000 N28V one-arm antibody (H chain CE115HA000) (antibody, human IgG1, kappa, L234A L235A, N297A, name in Kabat numbering)
heavy: B1 heavy
chain: B1 chain
light: B1 light with N33V, A39H
notes: one-arm antibody

ratio of amounts bound (altered form / unaltered GLS3000 antibody): 0.44
B23: GLS3000 N28K one-arm antibody (H chain CE115HA000) (antibody, human IgG1, kappa, L234A L235A, N297A, name in Kabat numbering)
heavy: B1 heavy
chain: B1 chain
light: B1 light with N33K, A39H
notes: one-arm antibody

ratio of amounts bound (altered form / unaltered GLS3000 antibody): 0.32
B28: GLS3000 N28S one-arm antibody (H chain CE115HA000) (antibody, human IgG1, kappa, L234A L235A, N297A, name in Kabat numbering)
heavy: B1 heavy
chain: B1 chain
light: B1 light with N33S, A39H
notes: one-arm antibody

ratio of amounts bound (altered form / unaltered GLS3000 antibody): 0.41
B29: GLS3000 N28W one-arm antibody (H chain CE115HA000) (antibody, human IgG1, kappa, L234A L235A, N297A, name in Kabat numbering)
heavy: B1 heavy
chain: B1 chain
light: B1 light with N33W, A39H
notes: one-arm antibody

ratio of amounts bound (altered form / unaltered GLS3000 antibody): 0.39
B30: GLS3000 N28M one-arm antibody (H chain CE115HA000) (antibody, human IgG1, kappa, L234A L235A, N297A, name in Kabat numbering)
heavy: B1 heavy
chain: B1 chain
light: B1 light with N33M, A39H
notes: one-arm antibody

ratio of amounts bound (altered form / unaltered GLS3000 antibody): 0.42
B32: GLS3000 N28H one-arm antibody (H chain CE115HA000) (antibody, human IgG1, kappa, L234A L235A, N297A, name in Kabat numbering)
heavy: B1 heavy
chain: B1 chain
light: B1 light with N33H, A39H
notes: one-arm antibody
